Source: PMC8798132

Biological target: HLA-DPB1 (from the recombinant plasmid pEGFP-N2-HLA-DPB1, expressed in 293T cells) (human) (UniProt P04440)
Assay: flow cytometry on cells

Sequence of UniProt P04440 (P04440 30-225): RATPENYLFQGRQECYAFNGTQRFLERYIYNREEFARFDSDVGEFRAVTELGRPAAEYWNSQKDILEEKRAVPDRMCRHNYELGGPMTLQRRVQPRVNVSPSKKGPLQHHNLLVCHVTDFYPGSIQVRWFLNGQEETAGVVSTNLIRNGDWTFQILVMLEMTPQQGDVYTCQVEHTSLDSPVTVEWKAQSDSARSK

For “gp42/gHgL complex protein (from UniProt P03205 33-223; P03231 19-706; P03212 23-137)”, the HLA-DP+ gp42+ cells (%) at 20 ug gp42 protein was 12.4%, the HLA-DP+ gp42+ cells (%) at 40 ug gp42 protein was 18.4% and the HLA-DP+ gp42+ cells (%) at 80 ug gp42 protein was 27.1%. The HLA-DPB1+ gp42+ cells (%), HLA-DPB1 recombinant plasmid group was 28.9%, the gp42+ cells (%) at 20 ug gp42 protein was 14% and the gp42+ cells (%) at 40 ug gp42 protein was 20.1%. The gp42+ cells (%) at 80 ug gp42 protein was 29.3% and the gp42+ cells (%), HLA-DPB1 recombinant plasmid group was 28.6%.
